B1: hu39.5_IGG1.AA (antibody, human IgG1, kappa, L234A L235A)
heavy: not shown
light: DTVLTQSPASLAVSPGQRATITCRASEGVKSYMHWYQQKPGQPPKLLIYKASNLASGVPARFSGSGSGTDFTLTINPVEADDTANYYCQQSWNDPTFGQGTKLEIKRTVAAPSVFIFPPSDEQLKSGTASVVCLLNNFYPREAKVQWKVDNALQSGNSQESVTEQDSKDSTYSLSSTLTLSKADYEKHKVYACEVTHQGLSSPVTKSFNRGEC
notes: humanized variant of antibody 39, human IgG1 L234A/L235A
B2: hu39.5_IGG1.AA-AF647 (antibody, human IgG1, kappa, L234A L235A)
heavy: not shown
light: B1 light
modifications: antibody conjugated to AF647 (Lightning Link kit; residues not stated)
B3: huBMK2_IGG1.AEASS (antibody, human IgG1, kappa, V domains shown)
VH: QVQLVQSGAEVKKPGASVKVSCKASGYTFTDYNMHWVRQAPGQRLEWIGYIVPLNGGSTFNQKFKGRATITVDTSARTAYMELSSLRSEDTAVYYCARGGTRFAYWGQGTLVTVSS
VL: DIVMTQSPDSLAVSLGERATINCRASESVDNFGVSFMYWFQQKPGQPPKLLIYGASNQGSGVPDRFSGSGSGTDFTLTISSLQAEDVAVYYCQQTKEVPYTFGGGTKVEIKR
notes: also called previously described anti-CD39 antibody (comparator)
B4: hu31.4_IGG1.AA (antibody, human IgG1, kappa, L234A L235A)
heavy: not shown
light: DIVLTQSPALAVSPGQRATITCRTQQTVDHYGTTYMNWYQQKPGQPPKLLIYLASSLASGVPARFSGSGSGTDFTLTINPVEADDTANYYCQQSRNLWTFGGGTKVEIKRTVAAPSVFIFPPSDEQLKSGTASVVCLLNNFYPREAKVQWKVDNALQSGNSQESVTEQDSKDSTYSLSSTLTLSKADYEKHKVYACEVTHQGLSSPVTKSFNRGEC
notes: humanized variant of antibody 31, human IgG1 L234A/L235A

Key:
[1] = biological target: T1, human CD39 expressed on the cell surface (human, UniProt P49961 1-510); assay: flow cytometry on human PBMCs gated on CD19+ B cells, one donor, 0 µM ATP
T1 construct: full-length human CD39 transfected into CHO-K1, or endogenous human CD39 on primary cells and cell lines, or human CD39 of knock-in mice; also called Human CD39-CHO-K1; cellular human CD39
T1 sequence: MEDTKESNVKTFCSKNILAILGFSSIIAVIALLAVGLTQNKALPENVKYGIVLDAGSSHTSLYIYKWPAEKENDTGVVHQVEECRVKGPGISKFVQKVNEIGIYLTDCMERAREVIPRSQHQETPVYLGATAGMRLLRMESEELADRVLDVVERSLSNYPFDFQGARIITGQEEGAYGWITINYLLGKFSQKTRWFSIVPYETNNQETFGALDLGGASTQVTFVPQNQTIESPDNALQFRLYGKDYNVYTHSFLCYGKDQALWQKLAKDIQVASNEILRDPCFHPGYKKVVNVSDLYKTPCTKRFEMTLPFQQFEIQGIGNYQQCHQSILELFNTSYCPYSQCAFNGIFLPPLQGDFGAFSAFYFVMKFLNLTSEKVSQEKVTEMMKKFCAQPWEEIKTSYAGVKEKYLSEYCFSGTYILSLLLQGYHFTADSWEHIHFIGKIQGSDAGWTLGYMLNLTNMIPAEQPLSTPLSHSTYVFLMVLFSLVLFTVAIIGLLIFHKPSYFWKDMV

[2] = biological target: T1, human CD39 expressed on the cell surface; assay: flow cytometry on human PBMCs gated on CD19+ B cells, 0 uM ATP (N = 8)
[3] = biological target: T2, soluble His-tagged human CD39 ECD protein (human, UniProt P49961 38-478); assay: SPR, monovalent affinity mode; average over seven surface densities
T2 construct: also called human CD39 ECD His-tagged antigen; Sino Biological Cat. No. 16020-H08B
T2 sequence: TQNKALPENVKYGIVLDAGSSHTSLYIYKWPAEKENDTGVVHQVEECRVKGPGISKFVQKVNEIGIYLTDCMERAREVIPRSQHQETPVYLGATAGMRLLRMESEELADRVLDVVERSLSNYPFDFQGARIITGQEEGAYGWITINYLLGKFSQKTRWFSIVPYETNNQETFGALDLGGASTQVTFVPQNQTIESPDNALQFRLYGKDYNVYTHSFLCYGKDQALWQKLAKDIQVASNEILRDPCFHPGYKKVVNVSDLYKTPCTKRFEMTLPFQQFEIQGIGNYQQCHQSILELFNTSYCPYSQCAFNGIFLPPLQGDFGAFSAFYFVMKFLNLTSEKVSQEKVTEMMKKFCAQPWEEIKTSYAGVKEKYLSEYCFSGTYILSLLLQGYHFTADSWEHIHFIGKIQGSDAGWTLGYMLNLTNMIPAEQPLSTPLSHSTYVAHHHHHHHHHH

[4] = biological target: T2, soluble His-tagged human CD39 ECD …; assay: SPR, bivalent avidity mode; average over six surface densities; average of different density surfaces; CD39 ECD immobilized
[5] = biological target: T2, soluble His-tagged human CD39 ECD …; assay: SPR, bivalent avidity mode (CD39 ECD immobilized, antibody analyte); Rmax 420.45 RU surface
[6] = biological target: T1, human CD39 expressed on the cell surface; assay: cell-based or functional assay
[7] = biological target: T1, human CD39 expressed on the cell surface; assay: cell-based or functional assay; remark: listed apart in the source
[8] = biological target: T3, recombinant human CD39 (soluble) (human, UniProt P49961 38-478, limits assumed); assay: cell-based or functional assay
T3 sequence (looked up): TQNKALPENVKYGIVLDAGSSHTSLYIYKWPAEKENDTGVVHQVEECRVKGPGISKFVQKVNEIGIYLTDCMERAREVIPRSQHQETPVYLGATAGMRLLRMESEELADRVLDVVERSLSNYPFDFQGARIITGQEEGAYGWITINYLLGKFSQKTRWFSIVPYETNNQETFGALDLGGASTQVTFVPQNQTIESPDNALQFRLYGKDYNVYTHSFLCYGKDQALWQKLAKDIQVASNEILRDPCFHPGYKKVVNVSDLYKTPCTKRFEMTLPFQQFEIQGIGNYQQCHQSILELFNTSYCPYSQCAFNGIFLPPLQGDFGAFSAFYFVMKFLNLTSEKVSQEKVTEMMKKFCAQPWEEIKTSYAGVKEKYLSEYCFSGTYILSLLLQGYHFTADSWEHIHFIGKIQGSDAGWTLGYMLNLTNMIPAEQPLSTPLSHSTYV

[9] = biological target: T1, human CD39 expressed on the cell surface; assay: flow cytometry on human PBMCs gated on CD19+ B cells, one donor, 400 µM ATP
[10] = biological target: T1, human CD39 expressed on the cell surface; assay: flow cytometry on human PBMCs gated on CD14+ monocytes, 0 uM ATP (N = 8)
[11] = biological target: T1, human CD39 expressed on the cell surface; assay: flow cytometry on human PBMCs gated on CD14+ monocytes, 400 uM ATP (N = 6)
[12] = biological target: T2, soluble His-tagged human CD39 ECD …; assay: SPR, bivalent avidity mode (CD39 ECD immobilized, antibody analyte); Rmax 524.16 RU surface
[13] = biological target: T1, human CD39 expressed on the cell surface; assay: cell-based or functional assay; remark: listed apart in the source
[14] = biological target: T1, human CD39 expressed on the cell surface; assay: flow cytometry on human PBMCs gated on CD19+ B cells, 400 uM ATP (N = 6)
[15] = biological target: T1, human CD39 expressed on the cell surface; assay: flow cytometry on whole blood of C57BL/6 hCD39KI MC38 mice treated in vivo with isotype control, with saline or oxaliplatin; signal over the IgG1.FcS-AF647 isotype control (bottom row of panels)
[16] = biological target: T2, soluble His-tagged human CD39 ECD …; assay: SPR, bivalent avidity mode; average over six surface densities
[17] = biological target: T1, human CD39 expressed on the cell surface; assay: competition flow cytometry on MOLP-8 cells, competitor hu39.1_IGG4.P-AF647
[18] = biological target: T2, soluble His-tagged human CD39 ECD …; assay: SPR, bivalent avidity mode (CD39 ECD immobilized, antibody analyte); Rmax 896.01 RU surface

Binder	EC50 (read off the curve) [1]	EC50 [2]	Kd [3]	IC50, CD39 enzymatic inhibition on THP-1 cells, 20 uM ATP [6]	Max Inhibition (%), THP-1 cells [6]	IC50, CD39 enzymatic inhibition on human monocytes, 20 uM ATP [7]	Max Inhibition (%), human monocytes, 20 uM ATP [7]	IC50, inhibition of recombinant CD39 enzymatic activity, 20 uM ATP [8]	Max Inhibition (%), recombinant CD39, 20 uM ATP [8]	EC50 (read off the curve) [9]	EC50 [10]	EC50 [11]	IC50, CD39 enzymatic inhibition on human monocytes, 400 uM ATP [13]	Max Inhibition (%), human monocytes, 400 uM ATP [13]	EC50 [14]	further results
B1	~0.2 nM	0.2 nM	0.24 nM	0.075 nM	55%	0.1 nM	69%	0.19 nM	80%	~0.2 nM	0.3 nM	0.5 nM	0.083 nM	62%	0.3 nM	Kd [4]: 0.01 nM; Kd [5]: 0.00998 nM; Kd [12]: 0.00656 nM
B2																binding result [15]: binds
B3	~0.7 nM	0.9 nM				2.7 nM	74%			~0.8 nM	1 nM	1 nM	1.4 nM	62%	0.8 nM	
B4	~2 nM	1 nM	0.19 nM	0.53 nM	62%	1 nM	69%	0.3 nM	86%	~2 nM			0.7 nM	63%	1 nM	Kd [16]: 0.3 nM; Max Competition [17]: -22%; Kd [18]: 0.105 nM
